Measured values reported in patent publication US8710180B2, “VEGF-specific capture agents, compositions, and methods of using and making” (Indi Molecular, Inc., priority 2011, dated 2014).

What was measured:
[1] = target: T1, VEGF165 binding to Avastin® Fab (Homo sapiens, UniProt P15692); experiment: competitive ELISA, inhibition of VEGF165 binding to Avastin Fab; conditions: 10 nM biotinylated VEGF165, Avastin Fab coated plate
T1 construct: biotin (chemical labelling)
T1 sequence (P15692 27-191 isoform P15692-4): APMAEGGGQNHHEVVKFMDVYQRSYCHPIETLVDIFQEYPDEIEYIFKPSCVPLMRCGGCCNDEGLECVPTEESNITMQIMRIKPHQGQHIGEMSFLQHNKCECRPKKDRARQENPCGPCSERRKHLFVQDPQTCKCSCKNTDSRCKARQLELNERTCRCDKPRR
Experimental: Using an excitation wavelength of 535 nm, fluorescent emission at 595 nm was recorded by Beckman Coulter DTX880 photometer (Brea, Calif.) as a function of capture agent concentration. The titration curves were fit using a four-parameter regression curve fitting program (Origin 8.5, Northampton, Mass.). Concentrations of peptides corresponding to the midpoint absorbance of the titration curve were calculated and used as the IC50 values.

VEGF165 [2] = target: T2, VEGF165 (Homo sapiens, UniProt P15692); experiment: pull-down (immunoprecipitation) of VEGF165 from spiked buffer or human serum, Western blot and silver stain; type: binding; conditions: VEGF165-spiked buffer (B) vs 25% human serum (S)
T2 construct: purchased Abcam ab56620
T2 sequence (P15692 27-191 isoform P15692-4): T1 sequence (P15692 27-191 isoform P15692-4)
Experimental: A pull-down assay was used to assess capture agent specificity for VEGF by measuring the ability of the capture agents to purify VEGF165 from buffer or complex media such as human serum. Capture agents were immobilized on streptavidin-functionalized magnetic beads, and the resultant resins were panned with VEGF165-spiked serum or buffer.
Pull-down detection of VEGF165 was performed using a modified immunoprecipitation technique that incorporated capture agents rather than antibody. […] A vehicle-only control (0.1% DMSO, v/v) accompanied each sample.
Proteins were captured by BSA-blocked Dynabeads® M-280 Streptavidin (Invitrogen, #112-05D) under rotation at 4° C. for 4 hours (100 μL of 50% slurry per pull-down condition). Beads were separated from the serum or buffer matrix by application of the DynaMag™-Spin magnet (Invitrogen, #123-20D), and captured proteins were eluted from the beads in 30 μL of reducing Laemmli buffer. Eluted samples were subjected to 12% SDS-PAGE separation at 200 V for 30 minutes in 1×TGS (25 mM Tris, 192 mM Glycine, 0.1% SDS (w/v), pH 8.3). Samples were subsequently electrophoretically transferred to a nitrocellulose membrane in 25 mM Tris, 192 mM Glycine, pH 8.3, containing 20% (v/v) methanol (Bio-Rad Laboratories, Hercules, Calif.) at 100 V for 45 minutes. […]

VEGF165 [3] = target: T2, VEGF165; experiment: direct solid-phase ELISA, binding of capture agents to VEGF165; conditions: immobilized VEGF165; KD estimated as concentration at half-maximal fluorescent emission
Experimental: The equilibrium dissociation constant (KD) for the capture agents may be estimated as the concentration corresponding to half-maximal fluorescent emission. Assaying multiple capture agents in parallel permits relative and absolute comparison of in vitro binding.
After washing each well with PBS (3×), the plate was filled with 5% non-fat dry milk in TBS (25 mM Tris, 150 mM NaCl, pH 7.25) containing 0.1% (v/v) Triton X-100 and blocked for 2 hours at 25° C. […] After washing all microwells with TBS/0.1%(v/v) Triton X-100 (5×), 0.1 μg/mL Streptavidin Poly-HRP conjugate (Pierce, Ill.) in TBS/0.1%(v/v) Triton X-100 was incubated for 30 minutes at 25° C. The plate was aspirated and washed with TBS/0.1% (v/v) Triton X-100 (5×), followed by TBS (5×), and then developed by adding QuantaRed^TM Enhanced Chemifluorescent HRP Substrate. Using an excitation wavelength of 535 nm, fluorescent emission at 595 nm was recorded by Beckman Coulter DTX880 photometer (Brea, Calif.) as a function of capture agent concentration. The titration curves were fit using a four-parameter regression curve fitting program (Origin 8.5, Northampton, Mass.).

- IC50 [1]: 400 nM
- Kd (VEGF165 [3]): ~15 nM
Substance: X-VEPNCDIHVMWEWECFERL-Tz4-lfrew-Tz4-eeird [Triligand 2]
- capture of VEGF in buffer vs. serum (VEGF165 [2]): captures equivalent amounts of VEGF in buffer and serum
